This passage reports Geo Mean of fluorescence intensity results from patent US20040115741A1.

The assay concerns the target HM1.24 antigen (human) (UniProt Q10589). Briefly: flow cytometry on KPMM2 cells, control antibody.
Chain of UniProt Q10589 (Q10589 1-161 limits assumed): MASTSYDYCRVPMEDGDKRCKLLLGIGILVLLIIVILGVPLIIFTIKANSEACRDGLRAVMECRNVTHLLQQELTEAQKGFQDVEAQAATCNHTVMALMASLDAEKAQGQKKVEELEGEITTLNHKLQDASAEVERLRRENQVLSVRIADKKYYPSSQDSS

“control antibody human IgG1 (hIgG1), Human IgG1, Kappa (SIGMA Cat. No. I3889)”: the Geo Mean of fluorescence intensity came out at 17.3.
